Assay results published in patent US20260062456A1.
Where “and” joins values, the source holds several entries; their conditions need not be identical. Equal entries are not always repeated.

Biological target: T1, CD226 (UniProt Q15762)
T1 sequence (looked up): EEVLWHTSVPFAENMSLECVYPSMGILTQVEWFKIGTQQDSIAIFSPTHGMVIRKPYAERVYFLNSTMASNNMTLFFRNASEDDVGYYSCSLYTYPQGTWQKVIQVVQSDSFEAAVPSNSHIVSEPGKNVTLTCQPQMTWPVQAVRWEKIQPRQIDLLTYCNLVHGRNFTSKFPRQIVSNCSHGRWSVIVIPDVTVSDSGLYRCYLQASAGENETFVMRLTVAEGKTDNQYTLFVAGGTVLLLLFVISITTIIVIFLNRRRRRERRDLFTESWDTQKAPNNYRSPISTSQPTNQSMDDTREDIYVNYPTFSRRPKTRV
Assay: flow cytometry, cells expressing CD226

| Substance | MFI at 25 nM [MFI] |
| --- | --- |
| variant CD155 IgV-Fc V9L, V11M, P18S, N35S, S54G, Q62K, L79P, L104M, T107M, V115M (Fc fusion) | 2320 |

Biological target: human PD-1 and human TIGIT both stably expressed on Jurkat cells (Jurkat/PD-1/TIGIT cells)
Assay: flow cytometry, Jurkat/PD-1/TIGIT cells, 20 nM

| Substance | MFI at 20 nM [MFI] |
| --- | --- |
| Fc Control (homodimer) (from UniProt P0DOX5 218-449) | 478 |
| Full length ECD of PD-L1 (R&D Systems) (from UniProt Q9NZQ7 19-238) (Fc fusion) | 10400 |
| Wild-type CD155-ECD-Fc (from UniProt P15151 21-343) (Fc fusion) | 1200 |
| non-stack variant PD-L1 IgV-Fc control (D43G/N45D/L56Q/V58A/G101G-ins (G101GG)) (Fc fusion) | 41400 |

Biological target: PD-1-Fc (recombinant PD-1-Fc fusion protein) (human) (UniProt Q15116)
Assay: ForteBio Octet, PD-1-Fc on sensor

PD-1-Fc (recombinant PD-1-Fc fusion protein) (human), sequence (Q15116 25-167 limits assumed): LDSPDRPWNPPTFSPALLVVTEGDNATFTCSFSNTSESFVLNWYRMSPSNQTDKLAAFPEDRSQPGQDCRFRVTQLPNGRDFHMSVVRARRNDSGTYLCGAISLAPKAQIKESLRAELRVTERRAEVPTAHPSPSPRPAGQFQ

| Substance | Fortebio binding to PD-1-Fc Response Units (Response Units) |
| --- | --- |
| PD-L2 IgV-Fc variant H15Q (Fc fusion) | 0.007 |
| PD-L2 IgV-Fc variant H15Q, S67L, R76G, I85F (Fc fusion) | 0.025 |

Biological target: CD112R endogenously expressed on Jurkat/IL-2 reporter cells (Jurkat parental) (UniProt Q6DKI7)
Assay: flow cytometry, Jurkat parental

CD112R endogenously expressed on Jurkat/IL-2 reporter cells (Jurkat parental), sequence (Q6DKI7 whole entry): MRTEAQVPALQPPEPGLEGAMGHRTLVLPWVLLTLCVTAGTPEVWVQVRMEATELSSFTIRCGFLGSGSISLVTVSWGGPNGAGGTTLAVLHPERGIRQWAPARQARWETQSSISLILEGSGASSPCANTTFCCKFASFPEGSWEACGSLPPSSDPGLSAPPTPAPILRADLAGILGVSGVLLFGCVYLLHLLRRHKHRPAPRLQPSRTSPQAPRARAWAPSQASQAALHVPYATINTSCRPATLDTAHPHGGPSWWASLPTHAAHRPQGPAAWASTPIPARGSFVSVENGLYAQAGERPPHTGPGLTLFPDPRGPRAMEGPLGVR

| Substance | MFI at 33.3nM [MFI] |
| --- | --- |
| non-stack variant PD-L1 IgV-Fc control (D43G/N45D/L56Q/V58A/G101G-ins (G101GG)) (Fc fusion) | 100 |

Biological target: PD-1 (human) (UniProt Q15116)
Assay: cell-based or functional assay

PD-1 (human), sequence (Q15116 25-288): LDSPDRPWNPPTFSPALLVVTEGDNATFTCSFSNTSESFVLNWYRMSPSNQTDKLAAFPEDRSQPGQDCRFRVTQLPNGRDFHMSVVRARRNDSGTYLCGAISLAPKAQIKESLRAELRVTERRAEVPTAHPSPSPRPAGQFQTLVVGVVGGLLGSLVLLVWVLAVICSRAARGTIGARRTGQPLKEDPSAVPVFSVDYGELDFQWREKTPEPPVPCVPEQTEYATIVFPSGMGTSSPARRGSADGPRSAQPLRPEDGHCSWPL

| Substance | Average Relative Luminescence Units | Fold increase in IL2 reporter signal |
| --- | --- | --- |
| variant PD-L1 IgV-Fc A33D, D43G, N45D, V58A, S75P (Fc fusion) | 2310 RLU | 1.04 fold |
| variant PD-L1 IgV-Fc A33D, E53V (Fc fusion) | 2140 RLU | 0.96 fold |
| variant PD-L1 IgV-Fc A33D, N45T (Fc fusion) | 2000 RLU | 0.9 fold |
| variant PD-L1 IgV-Fc A33D, N78I (Fc fusion) | 2060 RLU | 0.92 fold |
| variant PD-L1 IgV-Fc A33D, N78S (Fc fusion) | 2060 RLU | 0.92 fold |
| variant PD-L1 IgV-Fc A33D, S75P (SEQ ID NO 287) (Fc fusion) | 2040 RLU | 0.92 fold |
| variant PD-L1 IgV-Fc A33D, S75P, D85E (Fc fusion) | 2220 RLU | 0.99 fold |
| variant PD-L1 IgV-Fc D43G, N45D, L56Q, V58A, G101G-ins (G101GG) (Fc fusion) | 3930 RLU | 1.76 fold |
| variant PD-L1 IgV-Fc D43G, N45D, V58A (Fc fusion) | 2460 RLU | 1.11 fold |
| variant PD-L1 IgV-Fc E27G, N45T, K57R (Fc fusion) | 2030 RLU | 0.91 fold |
| variant PD-L1 IgV-Fc E27G, N45T, M97I (Fc fusion) | 1970 RLU | 0.88 fold |
| variant PD-L1 IgV-Fc E27G, N45T, V50A (Fc fusion) | 2000 RLU | 0.9 fold |
| variant PD-L1 IgV-Fc E27G, N45T, V50A, N78I (Fc fusion) | 1960 RLU | 0.88 fold |
| variant PD-L1 IgV-Fc E40G, D43V, N45T, V50A (Fc fusion) | 2220 RLU | 0.99 fold |
| variant PD-L1 IgV-Fc I20L, A33D, D43G, N45D, V58A, N78I (Fc fusion) | 4380 RLU | 1.97 fold |
| variant PD-L1 IgV-Fc I20L, D43G, N45D, N78I (Fc fusion) | 3470 RLU | 1.56 fold |
| variant PD-L1 IgV-Fc I20L, D43G, N45D, V58A, N78I (Fc fusion) | 4190 RLU | 1.88 fold |
| variant PD-L1 IgV-Fc I20L, D43G, N45D, V58A, N78I, D90G, G101D (Fc fusion) | 2000 RLU | 0.9 fold |
| variant PD-L1 IgV-Fc I20L, E27G, D43G, N45D, V58A, N78I (Fc fusion) | 4590 RLU | 2.06 fold |
| variant PD-L1 IgV-Fc I20L, E27G, D43G, N45T, V50A (Fc fusion) | 2010 RLU | 0.9 fold |
| variant PD-L1 IgV-Fc I20L, E27G, N45T, V50A (Fc fusion) | 1800 RLU | 0.81 fold |
| variant PD-L1 IgV-Fc I20L, I36T, N45D (SEQ ID NO 254) (Fc fusion) | 2110 RLU | 0.95 fold |
| variant PD-L1 IgV-Fc I20L, I36T, N45D (SEQ ID NO 298) (Fc fusion) | 2210 RLU | 0.99 fold |
| variant PD-L1 IgV-Fc I20L, I36T, N45D, I47T (Fc fusion) | 2250 RLU | 1.01 fold |

| Substance | Average Relative Luminescence Units | Fold increase in IL2 reporter signal |
| --- | --- | --- |
| variant PD-L1 IgV-Fc I20L, I36T, N45T, V50A (Fc fusion) | 2160 RLU | 0.97 fold |
| variant PD-L1 IgV-Fc I20L, K23E, D43G, N45D, V50A, N78I (Fc fusion) | 3590 RLU | 1.61 fold |
| variant PD-L1 IgV-Fc I20L, K23E, D43G, N45D, V58A, N78I (Fc fusion) | 3510 RLU | 1.57 fold |
| variant PD-L1 IgV-Fc I20L, K28E, D43G, N45D, V58A, Q89R, G101G-ins (G101GG) (Fc fusion) | 4290 RLU | 1.93 fold |
| variant PD-L1 IgV-Fc I20L, M41K, D43G, N45D (Fc fusion) | 2110 RLU | 0.95 fold |
| variant PD-L1 IgV-Fc I20L, N45T (Fc fusion) | 2180 RLU | 0.98 fold |
| variant PD-L1 IgV-Fc I20L, N45T, N78I (Fc fusion) | 2070 RLU | 0.93 fold |
| variant PD-L1 IgV-Fc K23R, D43G, N45D (Fc fusion) | 2360 RLU | 1.06 fold |
| variant PD-L1 IgV-Fc K23R, N45T, N78I (Fc fusion) | 2690 RLU | 1.21 fold |
| variant PD-L1 IgV-Fc K28N, M41V, N45T, H51N, K57E (Fc fusion) | 2350 RLU | 1.05 fold |
| variant PD-L1 IgV-Fc M18I, M41K, D43G, H51R, N78I (Fc fusion) | 2120 RLU | 0.95 fold |
| variant PD-L1 IgV-Fc M41K (Fc fusion) | 2150 RLU | 0.97 fold |
| variant PD-L1 IgV-Fc N45T (Fc fusion) | 2190 RLU | 0.98 fold |
| variant PD-L1 IgV-Fc N45T, L74P, S75P (Fc fusion) | 2030 RLU | 0.91 fold |
| variant PD-L1 IgV-Fc N45T, N78I (Fc fusion) | 2180 RLU | 0.98 fold |
| variant PD-L1 IgV-Fc N45T, S75P (Fc fusion) | 1960 RLU | 0.88 fold |
| variant PD-L1 IgV-Fc N45T, V50A (Fc fusion) | 2080 RLU and 2200 RLU | 0.93 fold and 0.99 fold |
| variant PD-L1 IgV-Fc N45T, V50A, N78I (Fc fusion) | 1900 RLU | 0.85 fold |
| variant PD-L1 IgV-Fc N78L (Fc fusion) | 2240 RLU | 1.01 fold |
| variant PD-L1 IgV-Fc T19I, E27G, N45I, V50A, N78I, M97K (Fc fusion) | 2050 RLU | 0.92 fold |
| variant PD-L1 IgV-Fc V11A, I20L, E27G, D43G, N45D, H51Y, S99G (Fc fusion) | 3380 RLU | 1.52 fold |
| variant PD-L1 IgV-Fc V11E, I20L, I36T, N45D, H60R, S75P (Fc fusion) | 2280 RLU | 1.02 fold |
| variant PD-L1 IgV-Fc Y14S, K28E, N45T (Fc fusion) | 2150 RLU | 0.97 fold |

Biological target: T2, rB7H6.Fc (human) (UniProt Q68D85)
T2 sequence (looked up): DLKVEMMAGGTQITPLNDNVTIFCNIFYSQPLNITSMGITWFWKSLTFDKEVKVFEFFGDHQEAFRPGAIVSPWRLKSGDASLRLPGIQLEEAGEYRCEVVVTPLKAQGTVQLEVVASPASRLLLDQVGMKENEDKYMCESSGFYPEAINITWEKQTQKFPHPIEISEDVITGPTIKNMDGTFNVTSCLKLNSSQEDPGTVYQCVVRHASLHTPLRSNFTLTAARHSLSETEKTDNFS
Assay: flow cytometry of yeast display strain stained with 16.6 nM rB7H6.Fc

| Substance | MFI [MFI] |
| --- | --- |
| parental NKp30 strain (yeast-displayed wild-type NKp30 IgC-like domain) (from UniProt O14931 19-134) (receptor) | 90 |
